From patent US20260347439 (published 2026)
Like-named read-outs stand apart in the source and are kept apart here.

B1: F6-125 (antibody, V domains shown)
VH: QLQLVQSGTEVKKPGASVKVSCKASGYTFSDNAINWVRQAPGQGLEWLGWITANNGNTNYAQKIQGRVTMTTDTSTSTVYMELRSLGSDDTAVYYCAREVVNYGLGSLHFDYWGQGTLVTVSS
VL: SYELTQPPSVSVSPGQTVSISCSGDKLGNDYASWYQQKPGQSPLLVIYEDAKRPSGIPERFSGSNSGNTATLTISGTQAMDDADYYCQAWDGTTVIFGGGTKLTVL
B2: F6-10 (antibody, V domains shown)
VH: DALLLQSGGGLMQPGGSLRLSCAASEFTFNIHAMTWVRQSPGKGLEWVSGISSTGEGTYYTDSVKGRFTISRDNSKSTLYLQMNSLRAEDTATYFCARYSFRYGELRGTFDIWGQGVLVSVSS
VL: DIQMTQTPSTLSASVGDRVIITCRASQSVGDSVAWFQQKPGRAPKLLIYDTTNLERGVPSRFSGSFSGTAFTLTITRLQPDDFATYYCQQYDESWTFGQGTKVEVK
B3: F6-18 (antibody, V domains shown)
VH: EEQLVESGGGLVRPGGSLRLSCVASGFSVSDYGMHWVRQAPGRGLEYVSAIRSHGDGTYYVNSVKGRFIISRDNSKNTLYLQMGSLSAEDMAVYYCARDRVWAHDYDDTAWLDAFDLWGQGTTVIVSS
VL: DIQMTQSPSTLSASVGDKVTITCRASQSVGSLLAWYQQKPGKAPKLLIYDASNLQRGVPSRFSGSGSGTEFTLTISSLQPDDFATYYCQQYKSHSPPFGQGTKLEIK
B4: MEDI8897 (antibody, V domains shown)
VH: QVQLVQSGAEVKKPGSSVMVSCQASGGLLEDYIINWVRQAPGQGPEWMGGIIPVLGTVHYGPKFQGRVTITADESTDTAYMELSSLRSEDTAMYYCATETALVVSETYLPHYFDNWGQGTLVTVSS
VL: DIQMTQSPSSLSAAVGDRVTITCQASQDIVNYLNWYQQKPGKAPKLLIYVASNLETGVPSRFSGSGSGTDFSLTISSLQPEDVATYYCQQYDNLPLTFGGGTKVEIKR
B5: F6-113 (antibody, V domains shown)
VH: QVQLQQWGAGLLKPSETLSLTCAVDGASVSDDDWTWIRQSPGKGLEWIGQIDQTGSFNYNPSLRSRVTISPDTSKNHFSLSLTSVTAADTALYYCARGGLVVTDVGQGWDAFDVWGQGTMVTVSS
VL: DIQLTQSPSSVSASVGDRITITCRASQDIDNWLAWYQQKPGEAPKLLIYAASTLQSGVPSRFSGSGAGTEFTLTITSLQPEDFAGYFCQQGDSFPLTFGGGTKVDIK

How the values were obtained:
RSV A2 pre-F [1] = biological target: T1, RSV A2 pre-F (Respiratory syncytial virus A2); experiment: BLI
RSV A2 pre-F [2] = biological target: T1, RSV A2 pre-F; experiment: ELISA
RSV A2 pre-F [3] = biological target: T1, RSV A2 pre-F; experiment: BLI; remark: listed apart in the source
RSV A2 pre-F [4] = biological target: T1, RSV A2 pre-F; experiment: ELISA; remark: listed apart in the source

| Binder | Kd (RSV A2 pre-F [1]) | EC50 (RSV A2 pre-F [2]) | Kd (RSV A2 pre-F [3]) | EC50 (RSV A2 pre-F [4]) |
| --- | --- | --- | --- | --- |
| B1 | < 0.001 nM | 0.0144 µg/mL | – | – |
| B2 | 0.994 nM | 0.0307 µg/mL | – | – |
| B3 | – | – | 0.0805 nM | 0.016 µg/mL |
| B4 | 0.379 nM | 0.0313 µg/mL | 0.122 nM | 0.0146 µg/mL |
| B5 | < 0.001 nM | 0.0133 µg/mL | – | – |
